Test results published in publication PMC3973317, “Solution structure and tandem DNA recognition of the C-terminal effector domain of PmrA from Klebsiella pneumoniae”.

Experiments:
[1] = molecular target: T1, PmrAC (C-terminal effector/DNA-binding domain of PmrA) (Klebsiella pneumoniae, UniProt W9BNR5 121-223); experiment: fluorescence polarization; 20 mM sodium phosphate, 30 mM NaCl, pH 6.0; FP with 12 nM 6-FAM DNA (temperature not stated); ITC plus 0.5 mM EDTA at 25 C; NMR at 298 K; conditions: protein: recombinant; tags: N-terminal extra Met; chain copies: 2; label: 5' 6-FAM (fluorescence polarization); none (NMR); blunt
T1 sequence: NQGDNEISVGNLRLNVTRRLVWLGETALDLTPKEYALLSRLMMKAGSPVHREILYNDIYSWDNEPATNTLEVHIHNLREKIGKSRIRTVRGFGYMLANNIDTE

[2] = molecular target: T1, PmrAC (C-terminal effector/DNA-binding …); experiment: NMR PRE; Mn2+ or Ca2+; 1:1; label does not affect interaction; 20 mM sodium phosphate, 30 mM NaCl, pH 6.0; FP with 12 nM 6-FAM DNA (temperature not stated); ITC plus 0.5 mM EDTA at 25 C; NMR at 298 K; conditions: protein: recombinant; tags: N-terminal extra Met; chain copies: 2; label: EDTA spin label (Mn2+/Ca2+); blunt
[3] = molecular target: T1, PmrAC (C-terminal effector/DNA-binding …); experiment: NMR PRE; Mn2+ or Ca2+; 2:1 protein:DNA; label does not affect interaction; 20 mM sodium phosphate, 30 mM NaCl, pH 6.0; FP with 12 nM 6-FAM DNA (temperature not stated); ITC plus 0.5 mM EDTA at 25 C; NMR at 298 K; conditions: protein: recombinant; tags: N-terminal extra Met; chain copies: 2; label: EDTA spin label (Mn2+/Ca2+); blunt
[4] = molecular target: T1, PmrAC (C-terminal effector/DNA-binding …); experiment: ITC; 1:1 stoichiometry; 0.5 mM EDTA; 20 mM sodium phosphate, 30 mM NaCl, pH 6.0; FP with 12 nM 6-FAM DNA (temperature not stated); ITC plus 0.5 mM EDTA at 25 C; NMR at 298 K; conditions: protein: recombinant; tags: N-terminal extra Met; chain copies: 2; blunt
[5] = molecular target: T1, PmrAC (C-terminal effector/DNA-binding …); experiment: NMR titration; range over residues; 20 mM sodium phosphate, 30 mM NaCl, pH 6.0; FP with 12 nM 6-FAM DNA (temperature not stated); ITC plus 0.5 mM EDTA at 25 C; NMR at 298 K; conditions: protein: recombinant; tags: N-terminal extra Met; chain copies: 2; blunt
[6] = molecular target: T1, PmrAC (C-terminal effector/DNA-binding …); experiment: ITC; 2:1 protein:DNA; one-site fit; 0.5 mM EDTA; 20 mM sodium phosphate, 30 mM NaCl, pH 6.0; FP with 12 nM 6-FAM DNA (temperature not stated); ITC plus 0.5 mM EDTA at 25 C; NMR at 298 K; conditions: protein: recombinant; tags: N-terminal extra Met; chain copies: 2; blunt
[7] = molecular target: T1, PmrAC (C-terminal effector/DNA-binding …); experiment: fluorescence polarization; two-site fit, first site (half1); 20 mM sodium phosphate, 30 mM NaCl, pH 6.0; FP with 12 nM 6-FAM DNA (temperature not stated); ITC plus 0.5 mM EDTA at 25 C; NMR at 298 K; conditions: protein: recombinant; tags: N-terminal extra Met; chain copies: 2; label: 5' 6-FAM (fluorescence polarization); none (NMR); blunt

B1: box1a (dsDNA)
DNA 1: AATTTCTTAATATTAT
DNA 2: ATAATATTAAGAAATT
**Q.** B1 was tested. Which Kd [1] did it give?
**A.** 0.13 ± 0.01 µM

B2: box1 dT-EDTA at THY4 (dsDNA)
DNA 1: ATTTCTTAATATTATCCTAAGCAAG
DNA 2: CTTGCTTAGGATAATATTAAGAAAT
modifications: dT-EDTA at T4 of strand 1
**Q.** Does B2 bind [2]?
**A.** binds

B3: box1 dT-EDTA at THY28 (dsDNA)
DNA 1: ATTTCTTAATATTATCCTAAGCAAG
DNA 2: CTTGCTTAGGATAATATTAAGAAAT
modifications: dT-EDTA at THY28 (strand 2, position 3)
**Q.** Does B3 bind [3]?
**A.** binds

B4: box2b (dsDNA)
DNA 1: CGTTTAAGTCCG
DNA 2: CGGACTTAAACG
**Q.** What does the source list for B4?
**A.** Kd [4]: 36.5 ± 9.4 µM; Kd [5]: 31.9 µM

B5: box2 (dsDNA)
DNA 1: TCATTTTAATTTCGTTTAAGTCCG
DNA 2: CGGACTTAAACGAAATTAAAATGA
**Q.** B5 was tested. Which Kd [6] did it give?
**A.** 0.97 ± 0.13 µM

B6: box1b (dsDNA)
DNA 1: ATTATCCTAAGCAAGG
DNA 2: CCTTGCTTAGGATAAT
**Q.** B6 was tested. Which Kd [1] did it give?
**A.** 9.3 ± 1.5 µM

B7: box1 (dsDNA)
DNA 1: ATTTCTTAATATTATCCTAAGCAAG
DNA 2: CTTGCTTAGGATAATATTAAGAAAT
**Q.** For B7, which Kd [7] is on record?
**A.** 0.19 ± 0.01 µM
